Read-outs that look alike come from different tables or passages of the source. No end group written: not given here.
Columns and labels:
[1] = target: T1, human recombinant adrenomedullin receptor (CRLR+RAMP3) (human); test: cell-based or functional assay
[2] = target: T1, human recombinant adrenomedullin …; test: cell-based or functional assay; remark: listed apart in the source

T1 sequence (Q16602 whole entry, chain 1 of 2): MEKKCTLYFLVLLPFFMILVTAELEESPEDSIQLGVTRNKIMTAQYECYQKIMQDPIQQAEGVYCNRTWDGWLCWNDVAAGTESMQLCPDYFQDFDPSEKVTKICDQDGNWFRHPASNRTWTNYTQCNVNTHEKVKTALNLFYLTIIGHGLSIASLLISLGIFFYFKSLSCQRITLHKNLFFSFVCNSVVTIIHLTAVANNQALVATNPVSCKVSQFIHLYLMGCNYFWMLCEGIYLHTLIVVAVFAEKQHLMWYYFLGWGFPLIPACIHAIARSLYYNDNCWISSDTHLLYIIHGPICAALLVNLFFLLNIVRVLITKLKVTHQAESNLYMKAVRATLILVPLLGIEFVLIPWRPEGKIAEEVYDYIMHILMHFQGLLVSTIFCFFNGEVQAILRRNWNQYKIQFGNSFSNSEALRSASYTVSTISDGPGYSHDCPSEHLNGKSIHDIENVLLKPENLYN
T1 sequence (O60896 whole entry, chain 2 of 2, further chain): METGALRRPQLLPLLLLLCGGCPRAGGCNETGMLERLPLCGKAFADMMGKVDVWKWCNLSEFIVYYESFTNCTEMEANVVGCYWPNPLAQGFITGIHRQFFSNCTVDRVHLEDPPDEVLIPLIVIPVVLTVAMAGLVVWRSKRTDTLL

Binder	EC50 (read off the curve); cAMP HTRF assay, CHO-K1 cells with human CRLR+RAMP3 [1] [nM]	EC50 (read off the curve); cAMP HTRF assay, CHO-K1 cells with human CRLR+RAMP3 [2] [nM]
YRQSMNQGSRSNGCRFGTCTFQKLAHQIYQLTDKDKDGMAPRNKISPQGY-NH2 (ends and bridges not checked) [Mouse ADM 1-50]	~0.08	
mature human Adrenomedullin (Human ADM 1-52) (ends and bridges not checked) peptide: YRQSMNNFQGLRSFGCRFGTCTVQKLAHQIYQFTDKDKDNVAPRSKISPQGY-NH2		~1

— patent US20210285949A1 (SPHINGOTEC, published 2021)
